Laboratory results: US20250295734A1, “ANTICOAGULANT PROTEINS AND THEIR USE FOR TREATING DISEASES ASSOCIATED WITH THE ACTIVATION OF NEUTROPHILS” (BIOXODES, priority 2018, published 2025)

What was measured:
[1] = Distribution and elimination of Ir-CPI in the mice; format: in vivo
Description: Ir-CPI was administered intravenously as a bolus (20.5 mg/kg) immediately followed by a continuous infusion at a rate of 3.7 mg/kg/h (see Table 1 below). Due to fast distribution and elimination of Ir-CPI in the mice (t1/2α=14 min and t1/2β=236 min), the combination of the bolus and the infusion was chosen in order to maintain a constant Ir-CPI concentration into the blood.

intrinsic pathway = conditions: in vitro; dose-dependent; cited from earlier work
FXIIa = molecular target: T1, FXIIa (Homo sapiens, UniProt P00748); conditions: aPTT-based test, FXII deficient plasma; cited from earlier work
T1 construct: The resulting α-FXIIa has a heavy chain of 50 kDa, connected to a light chain of 28 kDa
T1 sequence (P00748 20-372 limits assumed): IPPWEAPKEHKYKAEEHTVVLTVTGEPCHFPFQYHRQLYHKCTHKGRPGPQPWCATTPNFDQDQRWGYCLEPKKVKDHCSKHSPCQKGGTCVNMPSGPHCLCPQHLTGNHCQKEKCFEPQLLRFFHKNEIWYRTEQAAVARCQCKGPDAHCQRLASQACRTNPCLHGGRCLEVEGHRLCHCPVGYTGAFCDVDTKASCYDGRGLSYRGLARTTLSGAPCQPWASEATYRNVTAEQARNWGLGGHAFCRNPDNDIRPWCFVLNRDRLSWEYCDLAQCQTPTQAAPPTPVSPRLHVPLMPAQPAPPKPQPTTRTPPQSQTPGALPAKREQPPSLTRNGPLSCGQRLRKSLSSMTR
T1 sequence (P00748 373-615 limits assumed): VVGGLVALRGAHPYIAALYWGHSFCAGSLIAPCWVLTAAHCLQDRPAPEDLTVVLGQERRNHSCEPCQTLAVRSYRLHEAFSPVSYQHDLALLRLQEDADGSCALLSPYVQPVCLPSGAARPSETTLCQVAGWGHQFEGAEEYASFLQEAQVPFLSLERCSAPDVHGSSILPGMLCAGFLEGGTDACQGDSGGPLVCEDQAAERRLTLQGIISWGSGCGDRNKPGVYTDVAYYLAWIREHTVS

[2] = Dissolution in NaCl 0.9% (solubility limit); format: physicochemical
Description: Ir-CPI was freshly prepared on the testing day by dissolution in NaCl 0.9% to reach the concentration of 50 mg/mL (corresponding to the maximal concentration to reach to avoid solubility issues).

FXIa = FXIa (Homo sapiens, UniProt P03951); conditions: cited from earlier work
human neutrophils = experiment: Apoptosis/necrosis assay (Annexin V / Propidium Iodide); format: cell-based; conditions: recombinant Ir-CPI 15.3 μg/mL (2 μM); 1 h incubation; 4 donors
Description: The effect of recombinant Ir-CPI on apoptosis/necrosis of human neutrophils was assessed. For this purpose, freshly isolated neutrophils from 4 donors were pre-treated for 1 h with recombinant Ir-CPI at 15.3 μg/mL and then incubated with Annexin V-FITC, with Propidium Iodide (PI) and with anti-human CD66b-PE antibody for cell identification. As negative control, neutrophils were only incubated with Annexin V-PI and CD66b for cell identification.
Polymorphonuclear neutrophils (PMNs) were isolated with StraightFrom® Whole Blood CD15 MicroBeads kits from Miltenyi Biotech. Briefly, after erythrocytes lysis, the blood cells were incubated in the presence of CD15 microbeads. Blood cells were washed with separation buffer and centrifuged at 300 g for 10 min at room temperature. The pellets containing magnetically labeled cells were resuspended in separation buffer and applied to the equilibrated whole blood column placed on the QuadroMACS. After extensive washing, the column was removed from the magnetic separator, and labeled cells were eluted using whole blood elution buffer. Finally, the PMNs were centrifuged at 300 g for 10 min and resuspended in Hank's buffer with calcium and magnesium. […]
Apoptosis was detected by initially staining the cells with Annexin V and Propidium Iodide solution followed by flow cytometry analysis. […]

FXIa, sequence (P03951 19-387 limits assumed): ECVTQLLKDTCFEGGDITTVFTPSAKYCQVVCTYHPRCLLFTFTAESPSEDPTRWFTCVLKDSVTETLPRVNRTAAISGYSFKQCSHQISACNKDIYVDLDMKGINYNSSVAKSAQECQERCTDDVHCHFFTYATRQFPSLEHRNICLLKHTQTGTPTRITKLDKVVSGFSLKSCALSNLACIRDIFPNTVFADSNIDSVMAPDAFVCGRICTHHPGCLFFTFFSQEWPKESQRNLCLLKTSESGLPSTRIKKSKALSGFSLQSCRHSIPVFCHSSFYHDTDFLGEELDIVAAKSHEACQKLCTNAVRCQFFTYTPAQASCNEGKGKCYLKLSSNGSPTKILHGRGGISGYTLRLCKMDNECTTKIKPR
FXIa, sequence (P03951 388-625 limits assumed): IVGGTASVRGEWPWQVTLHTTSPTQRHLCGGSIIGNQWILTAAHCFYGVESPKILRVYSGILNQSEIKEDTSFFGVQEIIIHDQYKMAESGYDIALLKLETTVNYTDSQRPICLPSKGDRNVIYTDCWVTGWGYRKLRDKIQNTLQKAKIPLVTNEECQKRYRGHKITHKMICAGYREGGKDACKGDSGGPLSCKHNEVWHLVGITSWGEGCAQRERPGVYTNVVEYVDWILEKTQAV

B1: Ir-CPI: Ixodes ricinus salivary gland polypeptide, contact phase inhibitor, MW=7660 Da; sequence SEQ ID NO: 1 or SEQ ID NO: 2 (protein)
chain: ANHKGRGRPAKCKLPPDDGPCRARIPSYYFDRKTKTCKEFMYGGCEGNENNFENITTCQEECRAKKV
- t1/2α [1]: 0.233 h
- t1/2β [1]: 3.93 h
- activated Partial Thromboplastin Time (aPTT) (intrinsic pathway): prolong
- FXIIa clotting activity (FXIIa): inhibits
- maximal concentration to reach to avoid solubility issues [2]: 50 mg/mL
- binding to FXIa (FXIa): binds
- induction of apoptosis (human neutrophils): did not induce apoptosis
- mean necrotic, dead, apoptotic, and live cells vs negative control (human neutrophils): no statistical difference
